In patent US20240018226A1 (PROTHENA BIOSCIENCES, published 2024) one finds Kd data, which are given here for one molecule.

Test [1] concerns the target T1, 4R2N-tau (Swiss-Prot P10636-8) (human, UniProt P10636 2-758).
T1 construct: The construct used in SPR is not described; also called 441 amino acid tau protein
Kind of test: surface plasmon resonance. Background: In SPR one partner is held on a chip, and binding of the other changes the refractive index at the surface.

For test [2], the target named is T2, 3R2N-tau (Swiss-Prot P10636-5) (human, UniProt P10636 2-758).
T2 construct: The construct used in SPR is not described
The test can be described thus: surface plasmon resonance.

T2 sequence (P10636 other isoform, or with tags, fused parts or gaps limits assumed): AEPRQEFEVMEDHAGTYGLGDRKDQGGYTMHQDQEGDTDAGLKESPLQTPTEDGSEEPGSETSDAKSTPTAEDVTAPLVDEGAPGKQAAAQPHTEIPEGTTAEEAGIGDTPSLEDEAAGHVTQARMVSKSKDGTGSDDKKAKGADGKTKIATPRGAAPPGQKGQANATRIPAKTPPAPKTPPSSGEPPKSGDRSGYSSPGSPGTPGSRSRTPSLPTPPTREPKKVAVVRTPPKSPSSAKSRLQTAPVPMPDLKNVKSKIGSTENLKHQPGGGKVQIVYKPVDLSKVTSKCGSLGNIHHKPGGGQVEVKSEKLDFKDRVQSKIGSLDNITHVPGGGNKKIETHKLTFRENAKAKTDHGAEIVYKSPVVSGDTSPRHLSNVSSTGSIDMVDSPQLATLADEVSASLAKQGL
T1 sequence (P10636 other isoform, or with tags, fused parts or gaps limits assumed): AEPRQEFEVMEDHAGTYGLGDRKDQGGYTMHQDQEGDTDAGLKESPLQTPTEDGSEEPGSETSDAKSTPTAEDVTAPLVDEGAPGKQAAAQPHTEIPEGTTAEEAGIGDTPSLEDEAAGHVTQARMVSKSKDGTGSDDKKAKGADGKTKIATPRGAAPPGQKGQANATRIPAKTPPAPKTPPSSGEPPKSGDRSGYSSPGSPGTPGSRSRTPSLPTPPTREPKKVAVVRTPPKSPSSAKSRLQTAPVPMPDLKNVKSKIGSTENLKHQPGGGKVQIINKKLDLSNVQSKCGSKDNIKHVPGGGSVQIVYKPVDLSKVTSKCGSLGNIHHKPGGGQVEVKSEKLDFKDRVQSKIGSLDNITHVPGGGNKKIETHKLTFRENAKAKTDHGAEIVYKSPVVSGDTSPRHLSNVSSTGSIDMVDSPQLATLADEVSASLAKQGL

B1: hu3D6VHv1bA11/L2-DIM4 (antibody, human IgG1, kappa, V domains shown)
VH: EVQLVQSGAEVVKPGATVKISCKASGFNIKDYYLHWVRQRPGQGLEWIGWIDPENGDTVYDPKFQGRATITADTSTDTAYLQLGSLTSEDTAVYFCSTLDFWGQGTLVTVSS
VL: DVVMTQSPLSLPVTLGQPASISCKSSQSLLDSDGKTYLNWLQQRPGQSPRRLIYLVGKRDSGVPDRFSGSGSGTDFTLKISRVEAEDVGVYYCWQGTHFPYTFGGGTKLEIKR
notes: also called PRX005; humanized 3D6 variant
For orientation: Kd means a measure of binding affinity in units of concentration. Low values mean a tighter complex, high ones a looser complex. For the molecule B1, the dissociation constant Kd in test [1] is 0.206 nM; in test [2], 0.154 nM.
